{"source": "paper PMC5767323", "about": "“Differential NtcA Responsiveness to 2-Oxoglutarate Underlies the Diversity of C/N Balance Regulation in Prochlorococcus” (Frontiers in Microbiology, 2018)", "molecules": {"B1": {"name": "DNA1, glnA promoter MIT9313 wt (dsDNA)", "DNA 1": "TAGAAGGTACCTGTTGCTACAAAAAG", "DNA 2": "CTTTTTGTAGCAACAGGTACCTTCTA"}, "B2": {"name": "DNA3, glnA promoter SS120 wt (dsDNA)", "DNA 1": "CCAATAGTCACAAAAAGTACTTATTG", "DNA 2": "CAATAAGTACTTTTTGTGACTATTGG"}, "B3": {"name": "DNA5, glnA promoter MED4 wt (dsDNA)", "DNA 1": "AAAAAGTTACCTTTGATACATAAT", "DNA 2": "ATTATGTATCAAAGGTAACTTTTT"}, "B4": {"name": "DNA6, glnA promoter MED4 mutated (dsDNA)", "DNA 1": "AAAAACTAACCTTTGACTGATAAT", "DNA 2": "ATTATCAGTCAAAGGTTAGTTTTT"}}, "key": {"NtcA [1]": {"target": "T1, NtcA (Prochlorococcus marinus, UniProt Q7VDU1)", "T1 construct": "recombinant His6-tagged NtcA (pET-15b)", "T1 sequence (Q7VDU1 1-244)": "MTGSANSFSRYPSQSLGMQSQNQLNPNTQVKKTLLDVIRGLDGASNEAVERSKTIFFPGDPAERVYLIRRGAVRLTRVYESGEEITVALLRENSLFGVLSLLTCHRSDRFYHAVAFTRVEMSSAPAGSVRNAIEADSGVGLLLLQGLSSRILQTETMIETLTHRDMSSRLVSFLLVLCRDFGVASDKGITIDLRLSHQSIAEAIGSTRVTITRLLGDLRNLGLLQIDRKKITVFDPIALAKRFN", "test": "ITC of NtcA-dsDNA at varied 2OG, ternary equilibrium fit; supported by SPR and EMSA", "format": "binding"}, "NtcA [2]": {"target": "T2, NtcA (Prochlorococcus marinus, UniProt Q7TUN1)", "T2 construct": "recombinant His6-tagged NtcA (pET-15b)", "T2 sequence (Q7TUN1 1-222)": "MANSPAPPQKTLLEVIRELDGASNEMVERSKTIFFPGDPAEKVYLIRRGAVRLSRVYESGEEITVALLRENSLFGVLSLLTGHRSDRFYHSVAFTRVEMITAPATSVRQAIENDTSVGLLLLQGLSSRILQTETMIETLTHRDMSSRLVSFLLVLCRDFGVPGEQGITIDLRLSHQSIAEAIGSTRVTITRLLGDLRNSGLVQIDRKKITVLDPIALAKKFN", "test": "ITC of NtcA-dsDNA at varied 2OG, ternary equilibrium fit; supported by SPR and EMSA", "format": "binding"}, "NtcA [3]": {"target": "T3, NtcA (Prochlorococcus marinus, UniProt Q7TUG3)", "T3 construct": "recombinant His6-tagged NtcA (pET-15b)", "T3 sequence (Q7TUG3 1-244)": "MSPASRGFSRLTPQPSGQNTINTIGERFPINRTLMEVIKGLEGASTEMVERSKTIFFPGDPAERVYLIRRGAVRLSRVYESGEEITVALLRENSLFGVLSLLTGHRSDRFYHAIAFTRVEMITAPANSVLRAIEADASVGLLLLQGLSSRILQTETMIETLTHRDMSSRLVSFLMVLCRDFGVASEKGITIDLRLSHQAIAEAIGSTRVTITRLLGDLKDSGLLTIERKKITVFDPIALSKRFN", "test": "ITC of NtcA-dsDNA at varied 2OG, ternary equilibrium fit", "format": "binding"}, "[4]": {"target": "T4, NtcA SS120 (Prochlorococcus sp. SS120) (UniProt Q7VDU1)", "T4 sequence": "T1 sequence (Q7VDU1 1-244)", "test": "ITC", "conditions": "ITC: 50 mM Hepes, 350 mM NaCl, pH 7.5, 25 C, 0-10 mM 2OG, SPR: Biacore X, CM5 with neutravidin, buffer not given, EMSA: as Napolitano et al. 2012, 1 uM …"}, "NtcA MIT9313": {"target": "T5, NtcA MIT9313 (Prochlorococcus sp. MIT9313, UniProt Q7TUN1 1-222)", "T5 sequence": "T2 sequence (Q7TUN1 1-222)", "test": "ITC; saturating 2OG (Kd,eff = Kd/alpha, extrapolated from fit); ITC: 50 mM Hepes, 350 mM NaCl, pH 7.5, 25 C, 0-10 mM 2OG; SPR: Biacore X, CM5 with neutravidin, 25 C, buffer not given; EMSA: as Napolitano et al. 2012, 1 uM NtcA", "conditions": "protein: recombinant; tags: His6 (pET-15b); chain copies: 2; blunt"}, "NtcA SS120": {"target": "T6, NtcA SS120 (Prochlorococcus sp. SS120, UniProt Q7VDU1 1-244)", "T6 sequence": "T1 sequence (Q7VDU1 1-244)", "test": "ITC; saturating 2OG (Kd,eff = Kd/alpha, extrapolated from fit); ITC: 50 mM Hepes, 350 mM NaCl, pH 7.5, 25 C, 0-10 mM 2OG; SPR: Biacore X, CM5 with neutravidin, 25 C, buffer not given; EMSA: as Napolitano et al. 2012, 1 uM NtcA", "conditions": "protein: recombinant; tags: His6 (pET-15b); chain copies: 2; blunt"}, "NtcA MED4 [5]": {"target": "T7, NtcA MED4 (Prochlorococcus sp. MED4, UniProt Q7TUG3 1-244)", "T7 sequence": "T3 sequence (Q7TUG3 1-244)", "test": "ITC; saturating 2OG (Kd,eff = Kd/alpha, extrapolated from fit); ITC: 50 mM Hepes, 350 mM NaCl, pH 7.5, 25 C, 0-10 mM 2OG; SPR: Biacore X, CM5 with neutravidin, 25 C, buffer not given; EMSA: as Napolitano et al. 2012, 1 uM NtcA", "conditions": "protein: recombinant; tags: His6 (pET-15b); chain copies: 2; blunt"}, "NtcA MED4 [6]": {"target": "T7, NtcA MED4", "test": "ITC; independent of 2OG; ITC: 50 mM Hepes, 350 mM NaCl, pH 7.5, 25 C, 0-10 mM 2OG; SPR: Biacore X, CM5 with neutravidin, 25 C, buffer not given; EMSA: as Napolitano et al. 2012, 1 uM NtcA", "conditions": "protein: recombinant; tags: His6 (pET-15b); chain copies: 2; blunt"}}, "data": [{"molecule": "O=C(O)CCC(=O)C(=O)O", "note": "[2OG, 2-oxoglutarate]", "values": [{"measurement": "Kd", "setting": "NtcA [1]", "result": "42000 ± 3000", "unit": "µM"}, {"measurement": "Kd", "setting": "NtcA [2]", "result": "19000 ± 2000", "unit": "µM"}, {"measurement": "Kd", "setting": "NtcA [3]", "result": "36000 ± 3000", "unit": "µM"}]}, {"molecule": "CCAATAAGCCCCACACGGCATTATTG (double strand) [DNA4, glnA promoter SS120 mutated]", "values": [{"measurement": "Kd", "setting": "[4]", "result": 10, "unit": "µM"}]}, {"molecule": "B1", "values": [{"measurement": "Kd", "setting": "NtcA MIT9313", "result": "0.06 ± 0.01", "unit": "µM"}]}, {"molecule": "B2", "values": [{"measurement": "Kd", "setting": "NtcA SS120", "result": "0.8 ± 0.2", "unit": "µM"}]}, {"molecule": "B3", "values": [{"measurement": "Kd", "setting": "NtcA MED4 [5]", "result": "0.5 ± 0.1", "unit": "µM"}]}, {"molecule": "B4", "values": [{"measurement": "Kd", "setting": "NtcA MED4 [6]", "result": "9.5 ± 0.9", "unit": "µM"}]}]}
